Key:
[1] = test system: Notch1 signaling activated by Notch ligands (Jagged1, Delta-like 1, Delta-like 4); assay: Co-culture assay of ligand-induced Notch signaling (CSL-luciferase reporter); format: cell-based; details: for Inhibition of ligand-induced Notch1 signaling (CSL reporter activity): fusion protein expression vector co-transfected into Notch1-expressing HeLa, co-culture with ligand-expressing 293 (Bosc) cells
Procedure: Notch and Notch responsive transcriptional reporters are expressed in a “Notch-responsive” cell, HeLa. Notch ligands, Jagged-1, Delta-like 1, or Delta-like 4 are expressed in a “ligand-presenting” cell, 293. Expression is mediated by transfection of individual cell populations, cells are co-cultured, and then assayed for Notch-dependent reporter activity.
To determine ligand-induced Notch signaling, co-culture assays were performed using HeLa and 293-derived Bosc cells. Transient transfections were performed by calcium phosphate precipitation. Hela cells plated 1-day prior in 10-cm plates at 1.5×10^6 were transfected with 333 ng of pBOS Notch1, 333 ng pGA981-6, and 83 ng pLNC lacZ with either 666 ng pCMV-Fc or pHyTC-N1ECDFc (333 ng for ×1, 666 ng for ×2). Bosc cells plated 1-day prior in 10-cm plates at 4×10^6 were transfected with either 680 ng pHyTc-Jagged1, pHyTc-Dll1, pHyTc-Dll4, or pHyTc-x (empty vector). One day after transfection, the cells were co-cultured in triplicate (HeLa:Bosc, 1:2) on 12-well plates for 24 hours. Cells were harvested and luciferase activity was determined 2-days post-transfection using the Enhanced Luciferase assay kit (BD PharMingen), and β-galactosidase activity was determined using the Galacto-Light Plus kit (PE Biosystems). All assays were performed in a Berthold dual-injection luminometer.
An in vitro co-culture system (FIG. 3) with ligands expressed on one cell and Notch receptor activation scored in another cell was used to measure transcriptional activation of the Notch pathway. […] The N1ECD/Fc expression vector was co-transfected at different ratios with full-length Notch1 and the CSL-luciferase reporter in HeLa cells, followed by co-culture with ligand expressing 293 cells.

MMP9 = assay: Gelatin zymography of conditioned medium of transduced HUVEC, MMP-9; format: cell-based, Human; details: co-transduction with Ad-VEGF; fibrin gel
Procedure: (§1) FIGS. 24A-B show gelatin zymography analysis of MMP-9 and MMP-2 activity stimulated by VEGF in HUVEC. […] Transduced HUVEC were cultured on fibrin gel on the indicated day (i.e. D2, D4, D6, D8). Similar results were also obtained by using collagen gel, although induction of MMP-9 was stronger on fibrin gel than collagen gel (data not shown). […] HUVEC were transduced with Ad-N1ECDFc at the indicated doses and condition medium was collected from HUVEC cultured on collagen gel at day 4. FIGS. 24C-D show up-regulation of MMP-9 and MT1-MMP with Notch signaling. HUVEC were transduced with either Ad-LacZ or Ad-N1IC at 40 MOI. Numbers show PCR cycles. […] HUVEC were transduced with Ad-VEGF in the absence or presence of co-transduction of Ad-N1ECDFc at 40 MOI each. Ad-LacZ was co-transduced to make the same total amount of adenovirus at 80 MOI.
(§2) Requisition of MMPs for angiogenic sprouting has been established by synthetic MMP inhibitors (16). GM6001 is one broad inhibitor against MMPs including MMP2, MMP9 and MT1-MMP (18).

MMP2 = assay: Gelatin zymography of conditioned medium of transduced HUVEC, MMP-2; format: cell-based, Human; details: co-transduction with Ad-VEGF; collagen gel, day 4
Procedure: as §1, §2

MMP9 mRNA = assay: RT-PCR analysis of MMP9 expression in Ad-VEGF-HUVEC; format: cell-based, Human
Procedure: as §1, §2

[2] = test system: VEGF-induced angiogenesis; assay: Mouse Dorsa Air Sac (DAS) assay of in vivo angiogenesis; details: for VEGF-induced angiogenesis / neo-vascularization in vivo (summary statement): mouse
Text: These Figures show the role of Notch signaling in VEGF-dependent in vivo angiogenesis. […] Representative photographs are shown. FIG. 25A show subcutaneous induced angiogenesis with 293/VEGF transfectant versus 293/VEGF also expressing Notch decoy (Notch-based fusion protein) N1ECDFc. […] MDA-MB-231 breast cancer cells produce VEGF (data not shown).

HUVEC = HUVEC proliferation (CCK-8 kit); format: cell-based, Human; details: complete medium, 4 days
Procedure: These Figures show proliferation of Ad-VEGF165-transduced HUVEC. HUVEC were transduced with Ad-VEGF165 at the indicated dosages. Ad-LacZ was also co-infected to make the same total amount of adenovirus at a MOI of 40 pfu/cell. HUVEC were suspended in SFM supplemented with 1% FBS and then plated at 1×10^4 cells/well in 24-well multi-well plates with 0.4 ml of medium. After 4 days, cell numbers were determined using the CCK-8 kit and the results are indicated as the ratio of cell numbers determined to the number of control cells, which were transduced with Ad-GFP at a MOI of 40 pfu/cell. […] Ad-VEGF-transduced HUVEC were treated with SU5416 at the indicated dosages.
These Figures show the effect of alteration of Notch signaling on cell proliferation. The cells were transduced with the indicated adenoviruses. Ad-GFP was also co-infected to make the same total amount of adenovirus at a MOI of 60 pfu/cell. After 4 days, cell numbers were determined using the CCK-8 kit and results are indicated as the ratio of cell numbers determined to the number of control cells, which were transduced with AD-GFP at MOI of 60 pfu/cell. […] Transduced HUVEC were suspended in complete medium and then plated at 1×10^4 cells/well in 24-well multiwell plates with 0.4 ml of indicated medium (□: Ad-N1IC; ▪: Ad-N1ECDFc). […]

MT1-MMP mRNA = assay: RT-PCR analysis of MT1-MMP expression in Ad-VEGF-HUVEC; format: cell-based, Human
Procedure: as §1, §2

[3] = listed as Notch-based fusion protein
[4] = Ad-LacZ infected HUVEC, data not shown
[5] = co-transduction with Ad-VEGF, 40 MOI each

B1: N1ECDFc: Notch-based fusion protein or decoy: extracellular domain of Notch1 containing the EGF-repeats fused to the Fc portion of an antibody (protein)
chain: ARGLRCSQPSGTCLNGGRCEVANGTEACVCSGAFVGQRCQDPSPCLSTPCKNAGTCYVVDHGGIVDYACSCPLGFSGPLCLTPLANACLANPCRNGGTCDLLTLTEYKCRCPPGWSGKSCQQADPCASNPCANGGQCLPFESSYICGCPPGFHGPTCRQDVNECSQNPGLCRHGGTCHNEIGSYRCACRATHTGPHCELPYVPCSPSPCQNGGTCRPTGDTTHECACLPGFAGQNCEENVDDCPGNNCKNGGACVDGVNTYNCRCPPEWTGQYCTEDVDECQLMPNACQNAGTCHNSHGGYNCVCVNGWTGEDCSDNIDDCASAACFQGATCHDRVASFYCECPHGRTGLLCHLNDACISNPCNEGSNCDTNPVNGKAICTCPRGYTGPACSQDVDECALGANPCEHAGKCLNTLGSFECQCLQGYTGPRCEIDVNECISNPCQNDATCLDQIGEFQCICMPGYEGVYCEINTDECASSPCLHNGRCVDKINEFLCQCPKGFSGHLCQYDVDECASTPCKNGAKCLDGPNTYTCVCTEGYTGTHCEVDIDECDPDPCHIGLCKDGVATFTCLCQPGYTGHHCETNINECHSQPCRHGGTCQDRDNYYLCLCLKGTTGPNCEINLDDCASNPCDSGTCLDKIDGYECACEPGYTGSMCNVNIDECAGSPCHNGGTCEDGIAGFTCRCPEGYHDPTCLSEVNECNSNPCIHGACRDGLNGYKCDCAPGWSGTNCDINNNECESNPCVNGGTCKDMTSGYVCTCREGFSGPNCQTNINECASNPCLNQGTCIDDVAGYKCNCPLPYTGATCEVVLAPCATSPCKNSGVCKESEDYESFSCVCPTGWQGQTCEIDINECVKSPCRHGASCQNTNGSYRCLCQAGYTGRNCESDIDDCRPNPCHNGGSCTDGVNAAFCDCLPGFQGAFCEEDINECATNPCQNGANCTDCVDSYTCTCPTGFNGIHCENNTPDCTESSCFNGGTCVDGINSFTCLCPPGFTGSYCQYDVNECDSRPCLHGGTCQDSYGTYKCTCPQGYTGLNCQNLVRWCDSAPCKNGGKCWQTNTQYHCECRSGWTGFNCDVLSVSCEVAAQKRGIDVTLLCQHGGLCVDEEDKHYCHCQAGYTGSYCEDEVDECSPNPCQNGATCTDYLGGFSCKCVAGYHGSNCSEEINECLSQPCQNGGTCIDLTNTYKCSCPRGTQGVHCEINVDDCHPPLDPASRSPKCFNNGTCVDQVGGYTCTCPPGFVGERCEGDVNECLSNPCDPRGTQNCVQRVNDFHCECRAGHTGRRCESVINGCRGKPCRNGGVCAVASNTARGFICRCPARFEGATCENDARTCGSLRCLNGGTCISGPRSPTCLCLGSFTGPECQFPASSPCVGSNPCYNQGTCEPTSESPFYRCLCPAKFNGLLCHILDYSFTDLGPG
modifications: left off: a dimerising Fc or GST
notes: Notch-based fusion protein or decoy: extracellular domain of Notch1 containing the EGF-repeats fused to the Fc portion of an antibody
[1]; 2:1 versus 1:1 ratio of N1ECD/Fc to Notch1 vector
  Concentration-dependency of inhibition of Notch1 signaling: a 2:1 ratio of N1ECD/Fc to Notch1 was more effective in inhibiting signaling than a 1:1 ratio
[1]; Jagged1, Delta-like 1 or Delta-like 4 expressing cells
  Block of signaling by individual Notch ligands: could block signaling mediated by Jagged1, Delta-like 1 or Delta-like 4
[1]
  Inhibition of ligand-induced Notch1 signaling (CSL reporter activity): inhibition of Notch signaling
[1]; listed as N1ECD/Fc
  Inhibition of ligand-induced Notch1 signaling (CSL reporter activity): activation of Notch1 signaling by Notch ligands was reduced
[1]; listed as Notch1ECD/Fc
  Inhibition of ligand-induced Notch1 signaling (CSL reporter activity): functions to block ligand-dependent Notch signaling
[1]; [3]
  Inhibition of ligand-induced Notch1 signaling (CSL reporter activity): these inductions were inhibited
MMP9
  VEGF-stimulated induction and activation of MMP9 (gelatin zymography): inhibition of both induction and activation of MMP9
MMP2
  VEGF-stimulated activation of MMP2 (gelatin zymography): inhibition
MMP9 mRNA; [4]
  Expression of MMP9, fusion protein adenovirus alone: did not affect expression of either MMP9 or MT1-MMP
MMP9 mRNA; [5]
  VEGF-induced up-regulation of MMP9 mRNA: this induction was inhibited
[2]; Ad-N1ECDFc infected MDA-MB-231 cells
  Vessel density, index of angiogenesis, MDA-MB-231: is inhibited
[2]; VEGF-induced skin neovascularization model
  Induction of VEGFR-1 expression in vivo: blocks
[2]; adenovirus mediated expression, compared to adenovirus expressing LacZ
  Inhibition of MDA-MB-231-induced in vivo angiogenesis: clearly inhibited
[2]; co-expression of 293/N1ECDFc
  Vessel density, index of angiogenesis, 293/VEGF: is inhibited
[2]; coexpression in 293/VEGF transfectant, compared to 293/VEGF alone
  Inhibition of 293/VEGF-induced in vivo angiogenesis: clearly inhibited
[2]
  VEGF-induced angiogenesis / neo-vascularization in vivo (summary statement): inhibition of VEGF-induced angiogenesis
[2]; [3]
  VEGF-induced angiogenesis / neo-vascularization in vivo (summary statement): blocks VEGF-induced neo-vascularization
HUVEC
  Proliferation of transduced HUVEC: did not clearly alter proliferation of HUVEC
MT1-MMP mRNA; [4]
  Expression of MT1-MMP, fusion protein adenovirus alone: did not affect expression of either MMP9 or MT1-MMP
MT1-MMP mRNA; [5]
  VEGF-induced up-regulation of MT1-MMP mRNA: this induction was inhibited
